How the values were obtained:
human IgE (human) [1] = molecular target: human IgE (human) (UniProt P01854); assay: ELISA relative potency; GI-301 dialyzed into 10 mM His/HCl pH 6.7, 250 mM proline
human IgE (human) [2] = molecular target: human IgE (human) (UniProt P01854); assay: ELISA relative potency; GI-301 dialyzed into 10 mM His/HCl pH 6.7, 250 mM mannitol
human IgE (human) [3] = molecular target: human IgE (human) (UniProt P01854); assay: ELISA relative potency; GI-301 dialyzed into 10 mM Tris/HCl pH 7.4, 250 mM proline
human IgE (human) [4] = molecular target: human IgE (human) (UniProt P01854); assay: ELISA relative potency; GI-301 dialyzed into 10 mM His/HCl pH 6.7, 250 mM trehalose
human IgE (human) [5] = molecular target: human IgE (human) (UniProt P01854); assay: ELISA relative potency; GI-301 dialyzed into 10 mM Tris/HCl pH 7.4, 250 mM mannitol
human IgE (human) [6] = molecular target: human IgE (human) (UniProt P01854); assay: ELISA-based potency on human IgE; GI-301 100 mg/mL, 250 mM proline, histidine/HCl pH 6.7, no additive; after 35° C., 200 rpm, 5 days; n=2
human IgE (human) [7] = molecular target: human IgE (human) (UniProt P01854); assay: ELISA-based potency on human IgE; GI-301 100 mg/mL, 250 mM proline, histidine/HCl pH 6.7, no additive; after 35° C., 200 rpm, 14 days; n=2
human IgE (human) [8] = molecular target: human IgE (human) (UniProt P01854); assay: ELISA-based potency on human IgE; GI-301 100 mg/mL, 250 mM proline, histidine/HCl pH 6.7, 0.1 w/v % Tween 80; after 35° C., 200 rpm, 5 days; n=2
human IgE (human) [9] = molecular target: human IgE (human) (UniProt P01854); assay: ELISA-based potency on human IgE; GI-301 100 mg/mL, 250 mM proline, histidine/HCl pH 6.7, 0.1 w/v % Tween 80; after 35° C., 200 rpm, 14 days; n=2
human IgE (human) [10] = molecular target: human IgE (human) (UniProt P01854); assay: ELISA-based potency on human IgE; GI-301 100 mg/mL, 250 mM proline, histidine/HCl pH 6.7, 20 mg/mL methionine; after 35° C., 200 rpm, 5 days; n=2
human IgE (human) [11] = molecular target: human IgE (human) (UniProt P01854); assay: ELISA-based potency on human IgE; GI-301 100 mg/mL, 250 mM proline, histidine/HCl pH 6.7, 20 mg/mL methionine; after 35° C., 200 rpm, 14 days; n=2
human IgE (human) [12] = molecular target: human IgE (human) (UniProt P01854); assay: ELISA-based potency on human IgE; GI-301 100 mg/mL, 250 mM proline, histidine/HCl pH 6.7, no additive; after light stress (7.5 hours, 750 W/m^2); n=2
human IgE (human) [13] = molecular target: human IgE (human) (UniProt P01854); assay: ELISA-based potency on human IgE; GI-301 100 mg/mL, 250 mM proline, histidine/HCl pH 6.7, 0.1 w/v % Tween 80; after light stress (7.5 hours, 750 W/m^2); n=2
human IgE (human) [14] = molecular target: human IgE (human) (UniProt P01854); assay: ELISA-based potency on human IgE; GI-301 100 mg/mL, 250 mM proline, histidine/HCl pH 6.7, 20 mg/mL methionine; after light stress (7.5 hours, 750 W/m^2); n=2
human IgE (human) [15] = molecular target: human IgE (human) (UniProt P01854); assay: ELISA-based potency on human IgE; GI-301 100 mg/mL, 250 mM proline, histidine/HCl pH 6.7, 0.1 w/v % Tween 80 and 20 mg/mL methionine; after 35° C., 200 rpm, 5 days; n=2
human IgE (human) [16] = molecular target: human IgE (human) (UniProt P01854); assay: ELISA-based potency on human IgE; GI-301 100 mg/mL, 250 mM proline, histidine/HCl pH 6.7, 0.1 w/v % Tween 80 and 20 mg/mL methionine; after 35° C., 200 rpm, 14 days; n=2
human IgE (human) [17] = molecular target: human IgE (human) (UniProt P01854); assay: ELISA-based potency on human IgE; GI-301 100 mg/mL, 250 mM proline, histidine/HCl pH 6.7, 0.1 w/v % Tween 80 and 20 mg/mL methionine; after light stress (7.5 hours, 750 W/m^2); n=2

Sequence of UniProt P01854 (P01854 other isoform, or with tags, fused parts or gaps): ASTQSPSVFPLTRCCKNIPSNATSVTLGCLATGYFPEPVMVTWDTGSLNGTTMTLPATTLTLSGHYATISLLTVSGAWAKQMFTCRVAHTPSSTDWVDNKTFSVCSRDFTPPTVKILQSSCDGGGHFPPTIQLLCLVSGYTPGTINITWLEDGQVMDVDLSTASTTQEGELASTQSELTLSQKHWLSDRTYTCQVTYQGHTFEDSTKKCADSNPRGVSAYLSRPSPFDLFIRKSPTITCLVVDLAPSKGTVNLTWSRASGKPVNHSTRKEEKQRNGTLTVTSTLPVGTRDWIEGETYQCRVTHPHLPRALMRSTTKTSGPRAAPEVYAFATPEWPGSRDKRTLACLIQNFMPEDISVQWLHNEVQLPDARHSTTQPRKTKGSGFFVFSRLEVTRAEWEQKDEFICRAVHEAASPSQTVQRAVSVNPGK

B1: GI-301 (fusion protein dimer comprising FcεRIα ECD and modified Fc region) (Fc fusion, not shown: small tags and cut ends)
chain: VPQKPKVSLNPPWNRIFKGENVTLTCNGNNFFEVSSTKWFHNGSLSEETNSSLNIVNAKFEDSGEYKCQHQQVNESEPVYLEVFSDWLLLQASAEVVMEGQPLFLRCHGWRNWDVYKVIYYKDGEALKYWYENHNISITNATVEDSGTYYCTGKVWQLDYESEPLNITVIKAPREKYWLQSHTQPLGVFLFPPKPKDTLMISRTPEVTCVVVDVSQEDPEVQFNWYVDGVEVHNAKTKPREEQFNSTYRVVSVLTVLHQDWLNGKEYKCKVSNKGLPSSIEKTISKAKGQPREPQVYTLPPSQEEMTKNQVSLTCLVKGFYPSDIAVEWESNGQPENNYKTTPPVLDSDGSFFLYSRLTVDKSRWQEGNVFSCSVMHEALHNHYTQKSLSLSLGK
- potency ELISA [%] (relative potency) (human IgE (human) [1]): 101%
- potency ELISA [%] (relative potency) (human IgE (human) [2]): 98%
- potency ELISA [%] (relative potency) (human IgE (human) [3]): 106%
- potency ELISA [%] (relative potency) (human IgE (human) [4]): 103%
- potency ELISA [%] (relative potency) (human IgE (human) [5]): 92%
- relative potency by ELISA (human IgE (human) [6]): 79.7%
- relative potency by ELISA (human IgE (human) [7]): 105%
- relative potency by ELISA (human IgE (human) [8]): 92.1%
- relative potency by ELISA (human IgE (human) [9]): 80.4%
- relative potency by ELISA (human IgE (human) [10]): 113%
- relative potency by ELISA (human IgE (human) [11]): 74.2%
- relative potency by ELISA (human IgE (human) [12]): 110%
- relative potency by ELISA (human IgE (human) [13]): 110%
- relative potency by ELISA (human IgE (human) [14]): 112%
- relative potency by ELISA (human IgE (human) [15]): 94.3%
- relative potency by ELISA (human IgE (human) [16]): 111%
- relative potency by ELISA (human IgE (human) [17]): 111%

From patent US20240148829A1
